From article PMC4245980

How the values were obtained:
Assay in all cases: EMSA
McbR WT = McbR WT (Escherichia coli, UniProt P76114 1-221)
McbR E93S/R139F = McbR E93S/R139F (Escherichia coli, UniProt P76114 1-221, E93S;R139F)
McbR R89A/E93A/R139A = McbR R89A/E93A/R139A (Escherichia coli, UniProt P76114 1-221, R89A;E93A;R139A)

Measured: binding result

B1: PyciGECO (dsDNA)
DNA 1: AATTGTTAATATATCCAGAATGTTCCTCAAAATATATTTTCCCTCTAT
DNA 2: ATAGAGGGAAAATATATTTTGAGGAACATTCTGGATATATTAACAATT
binds: all assays above
